Reference: doi:10.1101/2025.04.13.648610, “Catalytic Mechanism and Differential Alarmone Regulation of a Conserved Stringent Nucleosidase” (bioRxiv, 2025)

Target: the molecule itself
Assay: crystal structure; PpnN E264A co-crystallised with pppGpp and 2 mM GMP (E264A 4:4 PpnN; four pppGpp and four R5P bound); 6-8 mg/ml PpnN; 3.5 Å

| Protein | stoichiometry N |
| --- | --- |
| PpnN E264A (enzyme, Escherichia coli, UniProt P0ADR8 1-454, looked up, PpnN (previously YgdH), nucleosidase, Escherichia coli, with E264A; Made by quick-change mutagenesis on pCA24N-ppnN (wt); also called E264A 4:4 PpnN; E264A variant; source: E. coli BL21 (DE3) ΔppnN (ppnN::kan), purified (Ni-NTA, Superdex 200 for biochemistry; HisTrap, SourceQ, Superdex 200 Increase for crystallisation)) MITHISPLGSMDMLSQLEVDMLKRTASSDLYQLFRNCSLAVLNSGSLTDNSKELLSRFENFDINVLRRERGVKLELINPPEEAFVDGRIIRALQANLFAVLRDILFVYGQIHNTVRFPNLNLDNSVHITNLVFSILRNARALHVGEAPNMVVCWGGHSINENEYLYARRVGNQLGLRELNICTGCGPGAMEAPMKGAAVGHAQQRYKDSRFIGMTEPSIIAAEPPNPLVNELIIMPDIEKRLEAFVRIAHGIIIFPGGVGTAEALLYLLGILMNPANKDQVLPLILTGPKESADYFRVLDEFVVHTLGENARRHYRIIIDDAAEVARQMKKSMPLVKENRRDTGDAYSFNWSMRIAPDLQMPFEPSHENMANLKLYPDQPVEVLAADLRRAFSGIVAGNVKEVGIRAIEEFGPYKINGDKEIMRRMDDLLQGFVAQHRMKLPGSAYIPCYEICT | 4 |

Target: the molecule itself
Assay: crystal structure; wt PpnN co-crystallised with pppGpp (3:4 PpnN; pppGpp on three of four subunits; R5P and guanine in the active sites); 6-8 mg/ml PpnN, 1-2 mM ligand

| Protein | stoichiometry N |
| --- | --- |
| PpnN (wild type), nucleosidase of Escherichia coli (enzyme, UniProt P0ADR8 1-454, looked up, PpnN (previously YgdH), nucleosidase, Escherichia coli; PAG1 domain 1-150, catalytic domain 151-329, PAG2 domain 330-454; also called wt PpnN; PpnNwt; source: E. coli BL21 (DE3) ΔppnN (ppnN::kan), purified (Ni-NTA, Superdex 200 for biochemistry; HisTrap, SourceQ, Superdex 200 Increase for crystallisation); not shown: His6, N-terminal, kept) MITHISPLGSMDMLSQLEVDMLKRTASSDLYQLFRNCSLAVLNSGSLTDNSKELLSRFENFDINVLRRERGVKLELINPPEEAFVDGRIIRALQANLFAVLRDILFVYGQIHNTVRFPNLNLDNSVHITNLVFSILRNARALHVGEAPNMVVCWGGHSINENEYLYARRVGNQLGLRELNICTGCGPGAMEAPMKGAAVGHAQQRYKDSRFIGMTEPSIIAAEPPNPLVNELIIMPDIEKRLEAFVRIAHGIIIFPGGVGTAEELLYLLGILMNPANKDQVLPLILTGPKESADYFRVLDEFVVHTLGENARRHYRIIIDDAAEVARQMKKSMPLVKENRRDTGDAYSFNWSMRIAPDLQMPFEPSHENMANLKLYPDQPVEVLAADLRRAFSGIVAGNVKEVGIRAIEEFGPYKINGDKEIMRRMDDLLQGFVAQHRMKLPGSAYIPCYEICT | 4 |

Target: the molecule itself
Assay: SEC; Superdex 200 10/300 GL in 50 mM Tris-HCl pH 7.5, 200 mM NaCl, 5% glycerol, 5 mM BME; elution profiles of variants compared with wt PpnN

| Protein | stoichiometry N |
| --- | --- |
| PpnN R241A (enzyme, Escherichia coli, UniProt P0ADR8 1-454, looked up, PpnN (previously YgdH), nucleosidase, Escherichia coli, with R241A; Made by quick-change mutagenesis on pCA24N-ppnN (wt); also called R241A variant; source: E. coli BL21 (DE3) ΔppnN, purified (Ni-NTA, Superdex 200)) MITHISPLGSMDMLSQLEVDMLKRTASSDLYQLFRNCSLAVLNSGSLTDNSKELLSRFENFDINVLRRERGVKLELINPPEEAFVDGRIIRALQANLFAVLRDILFVYGQIHNTVRFPNLNLDNSVHITNLVFSILRNARALHVGEAPNMVVCWGGHSINENEYLYARRVGNQLGLRELNICTGCGPGAMEAPMKGAAVGHAQQRYKDSRFIGMTEPSIIAAEPPNPLVNELIIMPDIEKALEAFVRIAHGIIIFPGGVGTAEELLYLLGILMNPANKDQVLPLILTGPKESADYFRVLDEFVVHTLGENARRHYRIIIDDAAEVARQMKKSMPLVKENRRDTGDAYSFNWSMRIAPDLQMPFEPSHENMANLKLYPDQPVEVLAADLRRAFSGIVAGNVKEVGIRAIEEFGPYKINGDKEIMRRMDDLLQGFVAQHRMKLPGSAYIPCYEICT | 4 |
| PpnN E263A (enzyme, Escherichia coli, UniProt P0ADR8 1-454, looked up, PpnN (previously YgdH), nucleosidase, Escherichia coli, with E263A; Made by quick-change mutagenesis on pCA24N-ppnN (wt); also called E263A variant; source: E. coli BL21 (DE3) ΔppnN, purified (Ni-NTA, Superdex 200)) MITHISPLGSMDMLSQLEVDMLKRTASSDLYQLFRNCSLAVLNSGSLTDNSKELLSRFENFDINVLRRERGVKLELINPPEEAFVDGRIIRALQANLFAVLRDILFVYGQIHNTVRFPNLNLDNSVHITNLVFSILRNARALHVGEAPNMVVCWGGHSINENEYLYARRVGNQLGLRELNICTGCGPGAMEAPMKGAAVGHAQQRYKDSRFIGMTEPSIIAAEPPNPLVNELIIMPDIEKRLEAFVRIAHGIIIFPGGVGTAAELLYLLGILMNPANKDQVLPLILTGPKESADYFRVLDEFVVHTLGENARRHYRIIIDDAAEVARQMKKSMPLVKENRRDTGDAYSFNWSMRIAPDLQMPFEPSHENMANLKLYPDQPVEVLAADLRRAFSGIVAGNVKEVGIRAIEEFGPYKINGDKEIMRRMDDLLQGFVAQHRMKLPGSAYIPCYEICT | 4 |
| PpnN T261A (enzyme, Escherichia coli, UniProt P0ADR8 1-454, looked up, PpnN (previously YgdH), nucleosidase, Escherichia coli, with T261A; Made by quick-change mutagenesis on pCA24N-ppnN (wt); also called T261A variant; source: E. coli BL21 (DE3) ΔppnN, purified (Ni-NTA, Superdex 200)) MITHISPLGSMDMLSQLEVDMLKRTASSDLYQLFRNCSLAVLNSGSLTDNSKELLSRFENFDINVLRRERGVKLELINPPEEAFVDGRIIRALQANLFAVLRDILFVYGQIHNTVRFPNLNLDNSVHITNLVFSILRNARALHVGEAPNMVVCWGGHSINENEYLYARRVGNQLGLRELNICTGCGPGAMEAPMKGAAVGHAQQRYKDSRFIGMTEPSIIAAEPPNPLVNELIIMPDIEKRLEAFVRIAHGIIIFPGGVGAAEELLYLLGILMNPANKDQVLPLILTGPKESADYFRVLDEFVVHTLGENARRHYRIIIDDAAEVARQMKKSMPLVKENRRDTGDAYSFNWSMRIAPDLQMPFEPSHENMANLKLYPDQPVEVLAADLRRAFSGIVAGNVKEVGIRAIEEFGPYKINGDKEIMRRMDDLLQGFVAQHRMKLPGSAYIPCYEICT | 4 |
| PpnN E223A (enzyme, Escherichia coli, UniProt P0ADR8 1-454, looked up, PpnN (previously YgdH), nucleosidase, Escherichia coli, with E223A; Made by quick-change mutagenesis on pCA24N-ppnN (wt); also called E223A variant; source: E. coli BL21 (DE3) ΔppnN, purified (Ni-NTA, Superdex 200)) MITHISPLGSMDMLSQLEVDMLKRTASSDLYQLFRNCSLAVLNSGSLTDNSKELLSRFENFDINVLRRERGVKLELINPPEEAFVDGRIIRALQANLFAVLRDILFVYGQIHNTVRFPNLNLDNSVHITNLVFSILRNARALHVGEAPNMVVCWGGHSINENEYLYARRVGNQLGLRELNICTGCGPGAMEAPMKGAAVGHAQQRYKDSRFIGMTEPSIIAAAPPNPLVNELIIMPDIEKRLEAFVRIAHGIIIFPGGVGTAEELLYLLGILMNPANKDQVLPLILTGPKESADYFRVLDEFVVHTLGENARRHYRIIIDDAAEVARQMKKSMPLVKENRRDTGDAYSFNWSMRIAPDLQMPFEPSHENMANLKLYPDQPVEVLAADLRRAFSGIVAGNVKEVGIRAIEEFGPYKINGDKEIMRRMDDLLQGFVAQHRMKLPGSAYIPCYEICT | 4 |
| PpnN D49A (enzyme, Escherichia coli, UniProt P0ADR8 1-454, looked up, PpnN (previously YgdH), nucleosidase, Escherichia coli, with D49A; Made by quick-change mutagenesis on pCA24N-ppnN (wt); source: E. coli BL21 (DE3) ΔppnN, purified (Ni-NTA, Superdex 200)) MITHISPLGSMDMLSQLEVDMLKRTASSDLYQLFRNCSLAVLNSGSLTANSKELLSRFENFDINVLRRERGVKLELINPPEEAFVDGRIIRALQANLFAVLRDILFVYGQIHNTVRFPNLNLDNSVHITNLVFSILRNARALHVGEAPNMVVCWGGHSINENEYLYARRVGNQLGLRELNICTGCGPGAMEAPMKGAAVGHAQQRYKDSRFIGMTEPSIIAAEPPNPLVNELIIMPDIEKRLEAFVRIAHGIIIFPGGVGTAEELLYLLGILMNPANKDQVLPLILTGPKESADYFRVLDEFVVHTLGENARRHYRIIIDDAAEVARQMKKSMPLVKENRRDTGDAYSFNWSMRIAPDLQMPFEPSHENMANLKLYPDQPVEVLAADLRRAFSGIVAGNVKEVGIRAIEEFGPYKINGDKEIMRRMDDLLQGFVAQHRMKLPGSAYIPCYEICT | 4 |
| PpnN M190A (enzyme, Escherichia coli, UniProt P0ADR8 1-454, looked up, PpnN (previously YgdH), nucleosidase, Escherichia coli, with M190A; Made by quick-change mutagenesis on pCA24N-ppnN (wt); also called M190A variant; source: E. coli BL21 (DE3) ΔppnN, purified (Ni-NTA, Superdex 200)) MITHISPLGSMDMLSQLEVDMLKRTASSDLYQLFRNCSLAVLNSGSLTDNSKELLSRFENFDINVLRRERGVKLELINPPEEAFVDGRIIRALQANLFAVLRDILFVYGQIHNTVRFPNLNLDNSVHITNLVFSILRNARALHVGEAPNMVVCWGGHSINENEYLYARRVGNQLGLRELNICTGCGPGAAEAPMKGAAVGHAQQRYKDSRFIGMTEPSIIAAEPPNPLVNELIIMPDIEKRLEAFVRIAHGIIIFPGGVGTAEELLYLLGILMNPANKDQVLPLILTGPKESADYFRVLDEFVVHTLGENARRHYRIIIDDAAEVARQMKKSMPLVKENRRDTGDAYSFNWSMRIAPDLQMPFEPSHENMANLKLYPDQPVEVLAADLRRAFSGIVAGNVKEVGIRAIEEFGPYKINGDKEIMRRMDDLLQGFVAQHRMKLPGSAYIPCYEICT | 4 |
| PpnN K195A (enzyme, Escherichia coli, UniProt P0ADR8 1-454, looked up, PpnN (previously YgdH), nucleosidase, Escherichia coli, with K195A; Made by quick-change mutagenesis on pCA24N-ppnN (wt); source: E. coli BL21 (DE3) ΔppnN, purified (Ni-NTA, Superdex 200)) MITHISPLGSMDMLSQLEVDMLKRTASSDLYQLFRNCSLAVLNSGSLTDNSKELLSRFENFDINVLRRERGVKLELINPPEEAFVDGRIIRALQANLFAVLRDILFVYGQIHNTVRFPNLNLDNSVHITNLVFSILRNARALHVGEAPNMVVCWGGHSINENEYLYARRVGNQLGLRELNICTGCGPGAMEAPMAGAAVGHAQQRYKDSRFIGMTEPSIIAAEPPNPLVNELIIMPDIEKRLEAFVRIAHGIIIFPGGVGTAEELLYLLGILMNPANKDQVLPLILTGPKESADYFRVLDEFVVHTLGENARRHYRIIIDDAAEVARQMKKSMPLVKENRRDTGDAYSFNWSMRIAPDLQMPFEPSHENMANLKLYPDQPVEVLAADLRRAFSGIVAGNVKEVGIRAIEEFGPYKINGDKEIMRRMDDLLQGFVAQHRMKLPGSAYIPCYEICT | 4 |
| PpnN H157A (enzyme, Escherichia coli, UniProt P0ADR8 1-454, looked up, PpnN (previously YgdH), nucleosidase, Escherichia coli, with H157A; Made by quick-change mutagenesis on pCA24N-ppnN (wt); also called H157A variant; source: E. coli BL21 (DE3) ΔppnN, purified (Ni-NTA, Superdex 200)) MITHISPLGSMDMLSQLEVDMLKRTASSDLYQLFRNCSLAVLNSGSLTDNSKELLSRFENFDINVLRRERGVKLELINPPEEAFVDGRIIRALQANLFAVLRDILFVYGQIHNTVRFPNLNLDNSVHITNLVFSILRNARALHVGEAPNMVVCWGGASINENEYLYARRVGNQLGLRELNICTGCGPGAMEAPMKGAAVGHAQQRYKDSRFIGMTEPSIIAAEPPNPLVNELIIMPDIEKRLEAFVRIAHGIIIFPGGVGTAEELLYLLGILMNPANKDQVLPLILTGPKESADYFRVLDEFVVHTLGENARRHYRIIIDDAAEVARQMKKSMPLVKENRRDTGDAYSFNWSMRIAPDLQMPFEPSHENMANLKLYPDQPVEVLAADLRRAFSGIVAGNVKEVGIRAIEEFGPYKINGDKEIMRRMDDLLQGFVAQHRMKLPGSAYIPCYEICT | 4 |
